Results as given in patent US20110151541.

Molecular target: gelatin

B1: recombinant stem bromelain (protein)
chain: SRDEPNDPMMKRFEEWMAEYGRVYKDDDEKMRRFQIFKNNVKHIETFNSRNENSYTLGINQFTDMTKSEFVAQYTGVSLPLNIEREPVVSFDDVNISAVPQSIDWRDYGAVNEVKNQNPCGSCWSFAAIATVEGIYKIKTGYLVSLSEQEVLDCAVSYGCKGGWVNKAYDFIISNNGVTTEENYPYLAYQGTCNANSFPNSAYITGYSYVRRNDERSMMYAVSNQPIAALIDASENFQYYNGGVFSGPCGTSLNHAITIIGYGQDSSGTKYWIVRNSWGSSWGEGGYVRMARGVSSSSGVCGIAMAPLFPTLQSGANAEVIKMVSET
Question: How did the Diameter of halo zones (mm), Average turn out when B1 was run?
Answer: 9 mm

Question: What about the Diameter of halo zones (mm), Plate 1 of the same protein?
Answer: 8 mm

Question: And the Diameter of halo zones (mm), Plate 2?
Answer: 10 mm

Question: What about the Diameter of halo zones (mm), Plate 3 of the same protein?
Answer: 9 mm
